Target: ribosomal protein uS13 of the E. coli 70S ribosome (E. coli (endogenous in MG1655), UniProt P0A7S9 1-118)
Test: cryo-EM structure
Settings: both partners purified

B1: HigB^TAC[K95A] toxin of Mycobacterium tuberculosis (enzyme)
chain: MPPPDPAAMGTWKFFRASVDGRPVFKKEFDKLPDQARAALIVLMQRYLVGDLAAGSIKPIRGDILELRWHEANNHFRVLFFRWGQHPVALTAFYANQQKTPKTKIETALDRQKIWKRAFGDTPPI
notes: also called HigB1
binding result: binds

Source: article PMC9098466, “Substrate recognition and cryo-EM structure of the ribosome-bound TAC toxin of Mycobacterium tuberculosis” (Nature Communications, 2022)
